Patent publication US12062453B2, “Self-titrating bacterial protease-activated prodrug” (GEORGIA TECH RESEARCH CORPORATION, priority 2018, dated 2024)
Where two headings read alike, the source gives them in different places.

Experiments:
OmpT [1] = biological target: T1, OmpT (Escherichia coli, UniProt P09169); assay type: cell-based, E. coli; parameters: OmpT expressed on the surface of E. coli; endogenous in cells; host or cells: DH5a Escherichia coli
Protocol: To model the rate of enzymatic activation of locked drugs, L, by OmpT, Michaelis-Menten (MM) kinetics were applied, where the rate of substrate activation is determined by the catalytic rate of the reaction, kcat, and the half-maximal substrate concentration, Km (Equation 1.3). Here it was assumed the system constituted a well-mixed solution of freely diffusing substrates (i.e., locked drug) in large excess, which were valid assumptions for this study since AMP prodrug was present at concentrations ˜102 micromolar in an aqueous environment. Because the total amount of drug is conserved, the MM activation rate of unlocked drug, U, was defined as opposite of the degradation rate of locked drug L (Equation 1.4). A term to account for the loss of active AMPS was included according to a proportionality constant, a*, that represents the number AMP required to kill one E. coli. This term was necessary as AMPS lyse E. coli by intercalating with bacterial membranes (Roversi, et al. ACS Chemical Biology, 9:2-3-2007 (2014)) and therefore are removed from the system and unable to target additional bacteria.
To fit this model to the disclosed system, the values for relevant parameters, including enzymatic efficiency (e.g., kcat, Km), bacterial growth (e.g., r, Bmax), and prodrug activity (e.g., a, a*) were measured (FIGS. 2A-2D, Table 2). This allowed for the prediction of bacteria-prodrug response curves (FIGS. 3B-3J) across nine distinct combinations of kcat and r values, which were experimentally controlled by altering the ambient temperature and concentration of broth (conditions labeled A1-3, B1-3, and C1-3). […] To experimentally validate the model predictions, bacteria were incubated with prodrugs under the defined nine conditions, and the number of living bacteria were quantified longitudinally over the course of a 24 hour treatment window. […]

DH5a Escherichia coli = assay type: cell-based
Protocol: Bacterial culture and cytotoxicity measurement: DH5a Escherichia coli were a gift from Todd Sulchek's BioMEMS lab at Georgia Tech. E. coli were cultured in LB broth (Lennox) at 37 C and plated on LB agar (Lennox) plates. LB broth was purchased from Millipore Sigma (Burlington, Mass.) and LB agar was purchased from Invitrogen (Carlsbad, Calif.). AMP and locked AMP were custom ordered from Genscript (Piscataway, NJ). […] Concentration was estimated by measuring the OD600 of the bacterial suspension, and assuming an OD600 of 1.000 corresponds to a concentration of 8×10^8 CFU/mL. Bacterial cell viability was measured by making eight 10-fold serial dilutions, and plating three 10 uL spots on an LB agar plate. Plates were incubated overnight at 37° C., and CFUs were counted.

OmpT [2] = biological target: T1, OmpT; assay type: biochemical, E. coli; parameters: purchased Lifespan Biosciences (Seattle, WA)
Protocol: Protease Cleavage Assays: All protease cleavage assays were performed with a BioTek Cytation 5 Imaging Plate Reader, taking fluorescent measurements at 485/528 nm (excitation/emission) for read-outs measuring peptide substrates terminated with FITC (Fluorescein isothiocyanate). Kinetic measurements were taken every minute over the course of 60-120 minutes at 37 C. Tobacco Etch Virus protease (TEVp), along with its substrate and buffer was obtained from Anaspec, Inc. (Fremont, Calif.). Activity RFU measurements were normalized to time 0 measurement, and as such represent fold change in signal. Outer Membrane Protease T (i.e., OmpT, Protease 7) was purchased from Lifespan Biosciences (Seattle, WA). OmpT fluorescent peptide substrate was custom ordered from Genscript (Piscataway, NJ).

[3] = biological target: T2, OmpT expressed on the surface of E. coli (Escherichia coli, UniProt P09169); assay type: cell-based
T2 construct: OmpT expressed on the surface of E. coli; endogenous in cells; host or cells: DH5a Escherichia coli
T2 sequence (P09169 21-317): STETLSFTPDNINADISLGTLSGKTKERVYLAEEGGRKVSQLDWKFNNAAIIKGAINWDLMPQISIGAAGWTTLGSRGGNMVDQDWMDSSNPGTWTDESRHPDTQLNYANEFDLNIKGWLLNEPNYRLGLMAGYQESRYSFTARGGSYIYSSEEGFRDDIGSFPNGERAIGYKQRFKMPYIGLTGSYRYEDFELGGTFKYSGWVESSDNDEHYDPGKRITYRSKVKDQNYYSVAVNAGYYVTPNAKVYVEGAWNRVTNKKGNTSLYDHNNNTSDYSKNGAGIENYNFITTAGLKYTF

T1 sequence (P09169 21-317): as above

With “AMP: cationic (polyarginine) antimicrobial peptide, the unlocked drug (KLAKLAKKLAKLAK; Bacterial protease substrate)” the “a*, AMP decay (number of AMP required to kill one E. coli)” value (OmpT [1]) was 2.4e11 AMP/bacteria, the “a, cytotoxic efficiency, EC50” value (OmpT [1]) was 1e11 h^−1, AMP/bacteria/hr and the “Cytotoxicity of unlocked drug (colonies)” value (DH5a Escherichia coli) was “significant reduction in colonies”.

For Aprotinin, the “OmpT activity in samples containing inhibitor” value (OmpT [2]; recombinant OmpT plus inhibitor) was “no activity was observed”, the “Bacteria load after prodrug treatment” value (DH5a Escherichia coli; locked AMP plus Aprotinin inhibitor) was “did not significantly reduce bacteria load” and the “OmpT activity in samples containing inhibitor” value ([3]; live E. coli culture plus inhibitor) was “no activity was observed”.

In the case of DABCYL-RRSRRV-Lys(5-FAM) [OmpT Probe], the “OmpT cleavage activity against fluorophore-quencher linker probe” value (OmpT [2]; recombinant OmpT) is reported as “OmpT activity was detected” and the “OmpT cleavage activity against fluorophore-quencher linker probe” value ([3]; live E. coli culture) is reported as “OmpT activity was detected”.

With “EEEEEEEEEEEEERRSRRVRRRRRRRRR [Locked AMP (linker 1)]” the “Km, Michaelis constant” value (OmpT [1]) was 9e+12 µL⁻¹, the kcat (OmpT [1]; condition A1: 37 °C, LB broth 0%) was 25 h^−1 × 10^10 and the kcat (OmpT [1]; condition A2: 30 °C, LB broth 2%) was 13.6 h^−1 × 10^10. The kcat (OmpT [1]; condition A3: 37 °C, LB broth 2%) was 22 h^−1 × 10^10, the kcat (OmpT [1]; condition B1: 37 °C, LB broth 4%) was 15 h^−1 × 10^10 and the kcat (OmpT [1]; condition B2: 37 °C, LB broth 6%) was 13.6 h^−1 × 10^10. The kcat (OmpT [1]; condition B3: 37 °C, LB broth 20%) was 1 h^−1 × 10^10, the kcat (OmpT [1]; condition C1: 30 °C, LB broth 20%) was 5.2 h^−1 × 10^10 and the kcat (OmpT [1]; condition C2: 30 °C, LB broth 66%) was 4 h^−1 × 10^10. For the same substance, the kcat (OmpT [1]; condition C3: 37 °C, LB broth 66%) was 6 h^−1 × 10^10, the “kcat, enzyme catalytic turnover” value (OmpT [1]; range over conditions) was 0.7-25e10 h^−1 and the “Bacteria load after prodrug treatment” value (DH5a Escherichia coli; prodrug alone) was “Elimination of bacteria”.

With “EEEEEEEEENLYFQGRRRRRRRRR [Locked AMP (linker 3)]” the “Bacteria load after prodrug treatment” value (DH5a Escherichia coli; prodrug alone) was “did not significantly reduce bacteria load” and the “Bacteria load after prodrug treatment” value (DH5a Escherichia coli; prodrug plus TEV protease) was “Elimination of bacteria”.
